Target: neonatal Fc receptor (FcRn) (UniProt P55899)
Assay: ELISA; pH 6.0; absorbance read with a plate reader; Kd defined as the concentration of protein that produces 50% of optimal binding response; who was immobilised is not given in the source

Sequence of neonatal Fc receptor (FcRn) (P55899 24-365): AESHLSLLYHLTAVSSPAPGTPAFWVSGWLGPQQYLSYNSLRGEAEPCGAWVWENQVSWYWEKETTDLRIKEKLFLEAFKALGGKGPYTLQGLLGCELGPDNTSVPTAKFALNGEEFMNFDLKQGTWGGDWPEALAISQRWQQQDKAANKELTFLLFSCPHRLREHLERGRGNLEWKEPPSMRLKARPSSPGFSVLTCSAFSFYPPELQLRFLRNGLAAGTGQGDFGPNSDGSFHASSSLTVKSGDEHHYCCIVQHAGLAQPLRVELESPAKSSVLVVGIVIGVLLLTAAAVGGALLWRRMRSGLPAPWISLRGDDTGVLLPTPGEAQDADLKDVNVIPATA

Substance: Fc-PepH3 conjugate (Fc fusion)
- Kd: 95.4 nM

Source: paper PMC9437899
